Measured values reported in US5492822A, “Method for recovering purified 100,000 dalton molecular weight fraction of human pancreatic cholesterol esterase” (Lange, III; Louis G., priority 1995, dated 1996).

Columns and labels:
[1] = system: intestinal cells (colonic adenocarcinoma cells CaCo-2); experiment: Cellular uptake of 3H-cholesterol from 3H-cholesterol oleate; type: cell-based; conditions: 5 nM human pancreatic cholesterol esterase (100 K), 1.5 mM taurocholate, no heparin
Procedure: For example, intestinal cells (colonic adenocarcinoma cells CaCo-2, American Type Cell Culture) were grown in T150 flasks in medium consisting of DME, 10% v/v fetal bovine serum, 50 ug/ml gentamicin and 2 mM sodium pyruvate. Uptake experiments were conducted using 10^5 intestinal cells in PBS buffer containing 5 mM CaCl2, pH 7.4 in the presence of 5 uM ^3 H-cholesterol oleate (SRA=50 dpm/pmol) embedded in phosphatidylcholine vesicles along with 10% v/v lipoprotein-depleted serum and 1.5 mM taurocholate. At time zero, 5 nM human pancreatic cholesterol esterase (100 K, homogeneous) was added to one set of flasks, an equivalent volume of buffer to another set, and 1 mg/ml final concentration bulk heparin together with 5 nM enzyme to a third set. At selected times, i.e., 0, 15, 30, 60, 120 and 480 min, medium was removed and the cells were washed with medium to allow quantitation of ^3 H-cholesterol uptake. In the absence of enzyme, cellular uptake of ^3 H-cholesterol was linear and occurred at a rate of 400 dpm/hr/10^5 cells. In the presence of cholesterol esterase, the rate of ^3 H-cholesterol uptake was 1,800 dpm/hr/10^5 cells.

[2] = Cleavage of cholesterol oleate, 100 kDa enzyme compared with 52 kDa triglyceride lipase; type: biochemical, human
Text: (§1) Human pancreatic cholesterol esterase (100 kDa) and human pancreatic triglyceride lipase (52 kDa) were purified to homogeneity (Examples 1 and 3), and their abilities to cleave triglycerides and cholesteryl esters were compared. […] Virtually the same results were found with cholesteryl esters; the 100 kDa enzyme cleaved cholesterol oleate at a rate at least 490-fold greater than that found for the 52 kDa triglyceride lipase.

[3] = biological target: T1, human pancreatic cholesterol esterase (100 kDa) (Homo sapiens, UniProt P19835); experiment: Triolein hydrolysis by human pancreatic cholesterol esterase (100 kDa); type: biochemical; conditions: purified 100 kDa esterase, in the presence of 5 mM taurocholate
T1 construct: from tissue; host or cells: human pancreas (autopsy)
T1 sequence (P19835 21-753): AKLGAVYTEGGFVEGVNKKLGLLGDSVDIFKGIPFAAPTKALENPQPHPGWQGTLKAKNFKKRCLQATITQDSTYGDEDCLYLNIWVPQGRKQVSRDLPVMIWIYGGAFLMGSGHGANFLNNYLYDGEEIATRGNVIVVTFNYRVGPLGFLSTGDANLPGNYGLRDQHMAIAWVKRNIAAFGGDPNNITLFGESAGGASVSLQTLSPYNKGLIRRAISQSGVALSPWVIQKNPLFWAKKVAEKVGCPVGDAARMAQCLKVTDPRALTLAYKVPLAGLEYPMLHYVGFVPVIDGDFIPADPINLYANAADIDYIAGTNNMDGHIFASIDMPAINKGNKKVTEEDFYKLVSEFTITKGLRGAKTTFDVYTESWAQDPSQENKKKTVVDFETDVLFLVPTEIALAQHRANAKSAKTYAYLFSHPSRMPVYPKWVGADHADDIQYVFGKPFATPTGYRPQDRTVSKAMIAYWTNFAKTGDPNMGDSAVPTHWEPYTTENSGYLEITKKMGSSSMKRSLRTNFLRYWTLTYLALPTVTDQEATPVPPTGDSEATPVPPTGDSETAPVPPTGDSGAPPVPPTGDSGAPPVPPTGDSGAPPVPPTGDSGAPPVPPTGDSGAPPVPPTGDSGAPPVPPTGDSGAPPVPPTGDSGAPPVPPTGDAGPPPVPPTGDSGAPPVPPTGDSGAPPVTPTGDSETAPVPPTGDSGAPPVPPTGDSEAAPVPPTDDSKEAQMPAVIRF
Text: as §1

[4] = system: human pancreatic cholesterol esterase; experiment: Binding of 125I-cholesterol esterase to small intestine vesicles and its displacement; conditions: in the presence of 5 mM taurocholate
Procedure: (§2) Vesicles contained 1.0 mg protein/ml, 30 ug total cholesterol/mg protein and 50 ug endogenous heparin/mg protein. ^125 I-cholesterol esterase (100K or 67K form) was added (0 to 400 pmol; 2,000 dpm/pmol) to 100 ug of protein of small intestine vesicles in 10 mM Tris-Cl, pH 7.2 for 15 min. at 37°. The concentration of offered ^125 I-cholesterol esterase varied between 10 nM and 1 uM. Experiments were performed utilizing 1% blotto to decrease nonspecific protein binding to the vesicles. After the 15 minute incubation at 37°, the reaction was quenched and the assay mixtures were filtered through wells of a Millipore system containing 0.2 micron pore filters presoaked in buffer. The filtrate was-collected to assess free (unbound) enzyme, and the filters were then immediately washed with 15 ml of cold buffer and counted for ^125 I. Total binding was defined as ^125 I-dpm bound to filter paper minus ^125 I-dpm detected in the same reaction without vesicles (background). Nonspecific binding (radioactivity bound to the vesicles in the presence of excess cold ligand) was quantitated as the amount of ^125 I-cholesterol esterase binding in the presence of a 1000-fold molar excess of unlabeled cholesterol esterase as described above. Specific binding is defined as the difference between total bound dpm and nonspecific-bound dpm (converted to moles bound by dividing by the SRA).

[5] = biological target: T2, human pancreatic cholesterol esterase (Homo sapiens, UniProt P19835); experiment: as above; conditions: specific binding, 15 min at 37°, 10 mM Tris-Cl pH 7.2; read-out: KD of cholesterol esterase binding to small intestine vesicles (Scatchard analysis)
T2 construct: from tissue; host or cells: human pancreas (autopsy)
T2 sequence (P19835 21-753): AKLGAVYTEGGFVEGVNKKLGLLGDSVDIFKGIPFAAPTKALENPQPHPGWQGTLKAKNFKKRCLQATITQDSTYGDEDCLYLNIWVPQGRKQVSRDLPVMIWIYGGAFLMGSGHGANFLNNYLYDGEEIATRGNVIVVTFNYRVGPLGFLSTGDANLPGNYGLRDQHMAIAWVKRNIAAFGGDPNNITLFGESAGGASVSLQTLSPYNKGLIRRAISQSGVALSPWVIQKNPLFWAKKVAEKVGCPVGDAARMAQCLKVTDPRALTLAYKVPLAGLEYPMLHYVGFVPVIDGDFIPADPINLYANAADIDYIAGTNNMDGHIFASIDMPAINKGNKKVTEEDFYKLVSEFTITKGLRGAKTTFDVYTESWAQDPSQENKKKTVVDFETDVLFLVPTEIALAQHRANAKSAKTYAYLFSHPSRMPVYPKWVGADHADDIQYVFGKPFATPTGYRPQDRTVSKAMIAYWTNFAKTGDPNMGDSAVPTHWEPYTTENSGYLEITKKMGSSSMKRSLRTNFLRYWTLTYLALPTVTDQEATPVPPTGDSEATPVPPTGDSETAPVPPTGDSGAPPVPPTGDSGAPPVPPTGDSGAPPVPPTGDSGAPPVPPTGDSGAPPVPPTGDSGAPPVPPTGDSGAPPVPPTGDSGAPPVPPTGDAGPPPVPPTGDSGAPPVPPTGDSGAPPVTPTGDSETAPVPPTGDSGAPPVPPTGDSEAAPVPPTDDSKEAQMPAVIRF
Procedure: as §2

B1: Human pancreatic cholesterol esterase (100K form): 100,000 molecular weight form of human pancreatic cholesterol esterase purified over heparin agarose (protein, UniProt P19835 21-753, looked up)
Bile salt-activated lipase: AKLGAVYTEGGFVEGVNKKLGLLGDSVDIFKGIPFAAPTKALENPQPHPGWQGTLKAKNFKKRCLQATITQDSTYGDEDCLYLNIWVPQGRKQVSRDLPVMIWIYGGAFLMGSGHGANFLNNYLYDGEEIATRGNVIVVTFNYRVGPLGFLSTGDANLPGNYGLRDQHMAIAWVKRNIAAFGGDPNNITLFGESAGGASVSLQTLSPYNKGLIRRAISQSGVALSPWVIQKNPLFWAKKVAEKVGCPVGDAARMAQCLKVTDPRALTLAYKVPLAGLEYPMLHYVGFVPVIDGDFIPADPINLYANAADIDYIAGTNNMDGHIFASIDMPAINKGNKKVTEEDFYKLVSEFTITKGLRGAKTTFDVYTESWAQDPSQENKKKTVVDFETDVLFLVPTEIALAQHRANAKSAKTYAYLFSHPSRMPVYPKWVGADHADDIQYVFGKPFATPTGYRPQDRTVSKAMIAYWTNFAKTGDPNMGDSAVPTHWEPYTTENSGYLEITKKMGSSSMKRSLRTNFLRYWTLTYLALPTVTDQEATPVPPTGDSEATPVPPTGDSETAPVPPTGDSGAPPVPPTGDSGAPPVPPTGDSGAPPVPPTGDSGAPPVPPTGDSGAPPVPPTGDSGAPPVPPTGDSGAPPVPPTGDSGAPPVPPTGDAGPPPVPPTGDSGAPPVPPTGDSGAPPVTPTGDSETAPVPPTGDSGAPPVPPTGDSEAAPVPPTDDSKEAQMPAVIRF
rate of 3H-cholesterol uptake [1]: 1,800 dpm/hr/10^5 cells | rate of cholesterol oleate cleavage relative to the 52 kDa triglyceride lipase [2]: at least 490 fold | rate of triolein hydrolysis [3]: 1,970 nmol/hr/g pancreas | specific binding to vesicles retained [4]: 72% | Kd [5]: 100 nM
